No end group written: not given here.
T1: C terminus of Hsc70 interacting protein (CHIP) (human, UniProt Q9UNE7 1-303)
T1 chain: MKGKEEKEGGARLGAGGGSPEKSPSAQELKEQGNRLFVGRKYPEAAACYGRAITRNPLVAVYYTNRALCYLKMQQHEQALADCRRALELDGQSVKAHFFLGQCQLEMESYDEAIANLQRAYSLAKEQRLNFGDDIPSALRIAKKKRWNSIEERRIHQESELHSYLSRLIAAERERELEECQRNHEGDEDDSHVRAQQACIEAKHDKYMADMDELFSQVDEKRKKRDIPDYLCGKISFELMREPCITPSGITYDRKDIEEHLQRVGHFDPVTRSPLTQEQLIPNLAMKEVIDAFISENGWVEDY


Key:
[1] = target: T1, C terminus of Hsc70 interacting protein …; assay: FP
DnaJB4 = DnaJB4 (human, UniProt Q9UDY4 1-337); assay: FP
Sequence of DnaJB4 (Q9UDY4 whole entry): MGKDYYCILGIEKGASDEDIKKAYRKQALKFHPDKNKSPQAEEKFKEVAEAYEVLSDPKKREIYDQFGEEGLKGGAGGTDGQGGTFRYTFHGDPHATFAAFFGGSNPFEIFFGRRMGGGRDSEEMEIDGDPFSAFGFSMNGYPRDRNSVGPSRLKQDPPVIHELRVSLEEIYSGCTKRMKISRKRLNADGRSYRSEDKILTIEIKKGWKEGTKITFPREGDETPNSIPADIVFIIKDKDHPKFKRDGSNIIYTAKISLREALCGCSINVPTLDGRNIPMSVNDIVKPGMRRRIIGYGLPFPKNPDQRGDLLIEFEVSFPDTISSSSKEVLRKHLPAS

Binder | Kd [1] [nM] | Kd (DnaJB4) [nM]
GSGPEIEEVD-OH (not fully specified (N-terminus); printed as FITC-Ahx-GSGPEIEEVD) [Hsp72 T636E tracer FITC-Ahx-GSGPEIEEVD] | 5040 | 1760
GSGPTIEEVD-OH (not fully specified (N-terminus); printed as FITC-Ahx-GSGPTIEEVD) [Hsp72 tracer FITC-Ahx-GSGPTIEEVD] | 1050 | 

Reference: paper PMC8913300 (2022)
